Laboratory results reported in patent US20260193335A1 (ZOETIS SERVICES, published 2026).
Changes are numbered by the printed parent chain. Numbers in names are those of the source.

B1: mAb3 (felinized anti-NGF antibody ZTS-768) S428A, feline IgG1a (antibody)
heavy: DVQLVESGGDLVKPGGSLRLTCVASGFTYSNYWMHWVRQAPGKGLQWVARIDPYGGGTKHNEKFKRRFTISRDNAKNTLYLQMNSLKTEDTATYYCVRSGYDYYFDVWGQGTLVTVSSASTTAPSVFPLAPSCGTTSGATVALACLVLGYFPEPVTVSWNSGALTSGVHTFPAVLQASGLYSLSSMVTVPSSRWLSDTFTCNVAHPPSNTKVDKTVRKTDHPPGPKPCDCPKCPPPEMLGGPSIFIFPPKPKDTLSISRTPEVTCLVVDLGPDDSDVQITWFVDNTQVYTAKTSPREEQFNSTYRVVSVLPILHQDWLKGKEFKCKVNSKSLPSPIERTISKAKGQPHEPQVYVLPPAQEELSRNKVSVTCLIKSFHPPDIAVEWEITGQPEPENNYRTTPPQLDSDGTYFVYSKLSVDRSHWQRGNTYTCSVAHEALHSHHTQKSLTQSPGK
light: EIQMTQSPSSLSASPGDRVTITCRASENIYSFLAWYQQKPGKVPKLLIYNANTLAEGVPSRFSGSGSGTDFTLTISSLEPEDAATYYCQHHFGTPFTFGSGTKLEIKRSDAQPSVFLFQPSLDELHTGSASIVCILNDFYPKEVNVKWKVDGVVQNKGIQESTTEQNSKDSTYSLSSTLTMSSTEYQSHEKFSCEVTHKSLASTLVKSFQRSECQRE
notes: also called mAb3 ID No. 89
B2: mAb3 (felinized anti-NGF antibody ZTS-768) S428Y and S434H, feline IgG1a (antibody)
heavy: B1 heavy with A434Y, S440H
light: B1 light
notes: also called mAb3 ID No. 114
B3: mAb3 (felinized anti-NGF antibody ZTS-768) S428L, feline IgG1a (antibody)
heavy: B1 heavy with A434L
light: B1 light
notes: also called mAb3 ID No. 98
B4: mAb3 (felinized anti-NGF antibody ZTS-768) S428Y and S434F, feline IgG1a (antibody)
heavy: B1 heavy with A434Y, S440F
light: B1 light
notes: also called mAb3 ID No. 115
B5: mAb3 (felinized anti-NGF antibody ZTS-768) S428Q, feline IgG1a (antibody)
heavy: B1 heavy with A434Q
light: B1 light
B6: mAb3 (felinized anti-NGF antibody ZTS-768) S428L and S434F, feline IgG1a (antibody)
heavy: B1 heavy with A434L, S440F
light: B1 light
notes: also called mAb3 ID No. 110
B7: mAb3 (felinized anti-NGF antibody ZTS-768) S428P, feline IgG1a (antibody)
heavy: B1 heavy with A434P
light: B1 light
notes: also called mAb3 ID No. 101
B8: mAb3 (felinized anti-NGF antibody ZTS-768) S428L and S434H, feline IgG1a (antibody)
heavy: B1 heavy with A434L, S440H
light: B1 light
notes: also called mAb3 ID No. 109
B9: mAb3 (felinized anti-NGF antibody ZTS-768) S428E, feline IgG1a (antibody)
heavy: B1 heavy with A434E
light: B1 light
notes: also called mAb3 ID No. 92
B10: mAb3 (felinized anti-NGF antibody ZTS-768) S428G, feline IgG1a (antibody)
heavy: B1 heavy with A434G
light: B1 light
notes: also called mAb3 ID No. 94
B11: mAb3 (felinized anti-NGF antibody ZTS-768) S428T, feline IgG1a (antibody)
heavy: B1 heavy with A434T
light: B1 light
notes: also called mAb3 ID No. 104
B12: mAb3 (felinized anti-NGF antibody ZTS-768) S428L and S434L, feline IgG1a (antibody)
heavy: B1 heavy with A434L, S440L
light: B1 light
notes: also called mAb3 ID No. 111
B13: mAb3 (felinized anti-NGF antibody ZTS-768) S428Y and S434L, feline IgG1a (antibody)
heavy: B1 heavy with A434Y, S440L
light: B1 light
notes: also called mAb3 ID No. 116
B14: mAb3 (felinized anti-NGF antibody ZTS-768) S428L and S434W, feline IgG1a (antibody)
heavy: B1 heavy with A434L, S440W
light: B1 light
notes: also called mAb3 ID No. 113
B15: mAb3 (felinized anti-NGF antibody ZTS-768) S428K, feline IgG1a (antibody)
heavy: B1 heavy with A434K
light: B1 light
notes: also called mAb3 ID No. 97
B16: mAb3 (felinized anti-NGF antibody ZTS-768) S428I, feline IgG1a (antibody)
heavy: B1 heavy with A434I
light: B1 light
notes: also called mAb3 ID No. 96
B17: mAb3 (felinized anti-NGF antibody ZTS-768) S428V, feline IgG1a (antibody)
heavy: B1 heavy with A434V
light: B1 light
notes: also called mAb3 ID No. 105
B18: mAb3 (felinized anti-NGF antibody ZTS-768) S428C, feline IgG1a (antibody)
heavy: B1 heavy with A434C
light: B1 light
notes: also called mAb3 ID No. 90
B19: mAb3 (felinized anti-NGF antibody ZTS-768) S428N, feline IgG1a (antibody)
heavy: B1 heavy with A434N
light: B1 light
notes: also called mAb3 ID No. 100
B20: mAb3 (felinized anti-NGF antibody ZTS-768) S428D, feline IgG1a (antibody)
heavy: B1 heavy with A434D
light: B1 light
notes: also called mAb3 ID No. 91
B21: mAb3 (felinized anti-NGF antibody ZTS-768) S428H, feline IgG1a (antibody)
heavy: B1 heavy with A434H
light: B1 light
notes: also called mAb3 ID No. 95
B22: mAb3 (felinized anti-NGF antibody ZTS-768) S428R, feline IgG1a (antibody)
heavy: B1 heavy with A434R
light: B1 light
notes: also called mAb3 ID No. 103
B23: mAb3 (felinized anti-NGF antibody ZTS-768) S428W, feline IgG1a (antibody)
heavy: B1 heavy with A434W
light: B1 light
B24: mAb3 (felinized anti-NGF antibody ZTS-768) S428Y, feline IgG1a (antibody)
heavy: B1 heavy with A434Y
light: B1 light
B25: mAb3 (felinized anti-NGF antibody ZTS-768) S428L and S434P, feline IgG1a (antibody)
heavy: B1 heavy with A434L, S440P
light: B1 light
B26: mAb3 (felinized anti-NGF antibody ZTS-768) S428Y and S434P, feline IgG1a (antibody)
heavy: B1 heavy with A434Y, S440P
light: B1 light
B27: mAb3 (felinized anti-NGF antibody ZTS-768) S428Y and S434W, feline IgG1a (antibody)
heavy: B1 heavy with A434Y, S440W
light: B1 light
B28: mAb3 (felinized anti-NGF antibody ZTS-768) S428F, feline IgG1a (antibody)
heavy: B1 heavy with A434F
light: B1 light
notes: also called mAb3 ID No. 93
B29: mAb3 (felinized anti-NGF antibody ZTS-768) S428M, feline IgG1a (antibody)
heavy: B1 heavy with A434M
light: B1 light
notes: also called mAb3 ID No. 99
B30: mAb4 (felinized anti-IL31 antibody ZTS-5864) S428A, feline IgG1a (antibody)
heavy: DVQLVESGGDLVKPGGSLRLTCVASGFTFSDYAMSWVRQAPGKGLQWVAGIDSVGSGTSYADSVKGRFTISRDNAKNTLYLQMNSLKTEDTATYYCASGFPGSFEHWGQGTLVTVSSASTTAPSVFPLAPSCGTTSGATVALACLVLGYFPEPVTVSWNSGALTSGVHTFPAVLQASGLYSLSSMVTVPSSRWLSDTFTCNVAHPPSNTKVDKTVRKTDHPPGPKPCDCPKCPPPEMLGGPSIFIFPPKPKDTLSISRTPEVTCLVVDLGPDDSDVQITWFVDNTQVYTAKTSPREEQFNSTYRVVSVLPILHQDWLKGKEFKCKVNSKSLPSPIERTISKAKGQPHEPQVYVLPPAQEELSRNKVSVTCLIKSFHPPDIAVEWEITGQPEPENNYRTTPPQLDSDGTYFVYSKLSVDRSHWQRGNTYTCSVAHEALHSHHTQKSLTQSPGK
VL: QSVLTQPSSVSGTLGQRITISCTGSSSNIGSGYVGWYQQVPGMGPKTVIYYNSDRPSGVPDRFSGSKSGSSGTLTITGLQAEDEADYYCSVYDRTFNAVFGGGT
notes: also called mAb4 ID No. 2
B31: mAb4 (felinized anti-IL31 antibody ZTS-5864) S428L and S434F, feline IgG1a (antibody)
heavy: B30 heavy with A433L, S439F
VL: B30 VL
notes: also called mAb4 ID No. 23
B32: mAb4 (felinized anti-IL31 antibody ZTS-5864) S428L and S434P, feline IgG1a (antibody)
heavy: B30 heavy with A433L, S439P
VL: B30 VL
notes: also called mAb4 ID No. 25
B33: mAb4 (felinized anti-IL31 antibody ZTS-5864) S428L and S434H, feline IgG1a (antibody)
heavy: B30 heavy with A433L, S439H
VL: B30 VL
notes: also called mAb4 ID No. 22
B34: mAb4 (felinized anti-IL31 antibody ZTS-5864) S428D, feline IgG1a (antibody)
heavy: B30 heavy with A433D
VL: B30 VL
notes: also called mAb4 ID No. 4
B35: mAb4 (felinized anti-IL31 antibody ZTS-5864) S428C, feline IgG1a (antibody)
heavy: B30 heavy with A433C
VL: B30 VL
notes: also called mAb4 ID No. 3
B36: mAb4 (felinized anti-IL31 antibody ZTS-5864) S428L and S434W, feline IgG1a (antibody)
heavy: B30 heavy with A433L, S439W
VL: B30 VL
notes: also called mAb4 ID No. 26
B37: mAb4 (felinized anti-IL31 antibody ZTS-5864) S428L and S434L, feline IgG1a (antibody)
heavy: B30 heavy with A433L, S439L
VL: B30 VL
notes: also called mAb4 ID No. 24

Each binder was assayed against T1, Feline FcRn (complex of FcRn-α subunit and β-microglobulin, C-terminal His tag) (feline, UniProt A0ABI7ZNY9 23-296; Q5MGS7 21-118) (assay: SPR Biacore, biotin-FcRn on SA chip, pH 6).
T1 construct: treated here as one molecule
Protocol: Feline FcRn was isolated, prepared and mutant Fc IgGs were assayed against feline FcRn according to Strietzel et. al., discussed above. Standard PCR was used to amplify feline FcRn-α subunit and β-microglobulin. FcRn-α subunit and β-microglobulin were co-transfected into HEK 293 cells and the FcRn complex was purified by IMAC affinity purification via the c-terminal His tag. FcRn complex was biotin labeled through BirA enzymatic biotinylatoin reaction. KD's were measured by Biacore T200 (GE Healthcare, Pittsburgh, PA, USA) or Biacore 8K (Cytiva, Marlborough, MA, USA) using a SA sensor chip.
FcRn was captured on the surface of the sensor using a modified SA capture method. 10 mM MES; 150 mM NaCl; 0.005% Tween20; 0.5 mg/mL BSA; pH6 was used as capture, method running buffer and titrations. 1×HBS-P, 0.5 mg/mL BSA; pH7.4 was also used for method running buffer and titrations. Fc mutant IgGs were flowed over receptor surfaces and affinity was determined using T200 evaluation software or Biacore Insight Evaluation software. Blank runs containing buffer only were subtracted out from all runs. Flow cells were regenerated using 50 mM Tris pH8 or pH9. Runs were performed at 15° C.

| Kd [nM] | Binder |
| --- | --- |
| 22.3 | B1 |
| 3.25 | B2 |
| 15.4 | B3 |
| 2.94 | B4 |
| 71.3 | B5 |
| 3.38 | B6 |
| 17.8 | B7 |
| 13.1 | B8 |
| 57.4 | B9 |
| 87.7 | B10 |
| 25.8 | B11 |
| 0.312 | B12 |
| 34.3 | B13 |
| 23.6 | B14 |
| 22.2 | B15 |
| 22.2 | B16 |
| 17.1 | B17 |
| 26.2 | B18 |
| 11.2 | B19 |

| Kd [nM] | Binder |
| --- | --- |
| 56.8 | B20 |
| 53.3 | B21 |
| 27.3 | B22 |
| 18.5 | B23 |
| 58.2 | B24 |
| 18.8 | B25 |
| 16.6 | B26 |
| 0.812 | B27 |
| 6.75 | B28 |
| 6.89 | B29 |
| 66.4 | B30 |
| 84.7 | B31 |
| 2250 | B32 |
| 17.7 | B33 |
| 190 | B34 |
| 29 | B35 |
| 17.2 | B36 |
| 97.2 | B37 |
